T1: G9a and GLP (Homo sapiens, UniProt Q96KQ7+Q9H9B1)
T1 sequence (Q96KQ7 2-1210 limits assumed): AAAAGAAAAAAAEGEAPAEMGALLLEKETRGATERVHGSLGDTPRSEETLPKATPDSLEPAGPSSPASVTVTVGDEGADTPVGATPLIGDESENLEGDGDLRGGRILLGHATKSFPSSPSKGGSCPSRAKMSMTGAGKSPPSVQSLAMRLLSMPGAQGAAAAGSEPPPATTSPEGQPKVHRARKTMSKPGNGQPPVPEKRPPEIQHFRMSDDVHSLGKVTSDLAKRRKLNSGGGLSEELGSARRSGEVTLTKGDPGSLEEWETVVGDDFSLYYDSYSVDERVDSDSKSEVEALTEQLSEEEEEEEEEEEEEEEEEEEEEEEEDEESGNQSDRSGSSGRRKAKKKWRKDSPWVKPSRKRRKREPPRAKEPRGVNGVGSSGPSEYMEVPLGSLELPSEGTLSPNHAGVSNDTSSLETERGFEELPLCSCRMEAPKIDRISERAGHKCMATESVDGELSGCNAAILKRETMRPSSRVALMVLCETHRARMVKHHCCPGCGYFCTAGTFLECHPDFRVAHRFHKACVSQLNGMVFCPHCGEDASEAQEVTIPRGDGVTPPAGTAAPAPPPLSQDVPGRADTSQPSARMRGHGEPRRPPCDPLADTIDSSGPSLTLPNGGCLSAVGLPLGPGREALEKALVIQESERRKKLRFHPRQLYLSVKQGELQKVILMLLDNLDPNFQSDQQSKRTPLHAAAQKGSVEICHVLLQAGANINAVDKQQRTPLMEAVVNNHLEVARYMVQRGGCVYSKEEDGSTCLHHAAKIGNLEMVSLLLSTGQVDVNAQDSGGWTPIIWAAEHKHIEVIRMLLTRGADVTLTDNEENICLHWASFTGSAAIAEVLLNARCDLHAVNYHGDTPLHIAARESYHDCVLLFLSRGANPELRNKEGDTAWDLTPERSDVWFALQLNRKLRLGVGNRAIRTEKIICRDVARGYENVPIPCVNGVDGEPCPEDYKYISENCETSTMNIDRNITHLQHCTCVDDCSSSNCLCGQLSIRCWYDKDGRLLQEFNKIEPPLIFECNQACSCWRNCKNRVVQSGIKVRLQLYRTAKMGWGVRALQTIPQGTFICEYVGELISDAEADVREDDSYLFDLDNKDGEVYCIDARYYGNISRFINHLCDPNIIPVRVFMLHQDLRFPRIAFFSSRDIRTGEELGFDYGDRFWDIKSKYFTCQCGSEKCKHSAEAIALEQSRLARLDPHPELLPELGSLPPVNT
T1 sequence (Q9H9B1 2-1298 limits assumed): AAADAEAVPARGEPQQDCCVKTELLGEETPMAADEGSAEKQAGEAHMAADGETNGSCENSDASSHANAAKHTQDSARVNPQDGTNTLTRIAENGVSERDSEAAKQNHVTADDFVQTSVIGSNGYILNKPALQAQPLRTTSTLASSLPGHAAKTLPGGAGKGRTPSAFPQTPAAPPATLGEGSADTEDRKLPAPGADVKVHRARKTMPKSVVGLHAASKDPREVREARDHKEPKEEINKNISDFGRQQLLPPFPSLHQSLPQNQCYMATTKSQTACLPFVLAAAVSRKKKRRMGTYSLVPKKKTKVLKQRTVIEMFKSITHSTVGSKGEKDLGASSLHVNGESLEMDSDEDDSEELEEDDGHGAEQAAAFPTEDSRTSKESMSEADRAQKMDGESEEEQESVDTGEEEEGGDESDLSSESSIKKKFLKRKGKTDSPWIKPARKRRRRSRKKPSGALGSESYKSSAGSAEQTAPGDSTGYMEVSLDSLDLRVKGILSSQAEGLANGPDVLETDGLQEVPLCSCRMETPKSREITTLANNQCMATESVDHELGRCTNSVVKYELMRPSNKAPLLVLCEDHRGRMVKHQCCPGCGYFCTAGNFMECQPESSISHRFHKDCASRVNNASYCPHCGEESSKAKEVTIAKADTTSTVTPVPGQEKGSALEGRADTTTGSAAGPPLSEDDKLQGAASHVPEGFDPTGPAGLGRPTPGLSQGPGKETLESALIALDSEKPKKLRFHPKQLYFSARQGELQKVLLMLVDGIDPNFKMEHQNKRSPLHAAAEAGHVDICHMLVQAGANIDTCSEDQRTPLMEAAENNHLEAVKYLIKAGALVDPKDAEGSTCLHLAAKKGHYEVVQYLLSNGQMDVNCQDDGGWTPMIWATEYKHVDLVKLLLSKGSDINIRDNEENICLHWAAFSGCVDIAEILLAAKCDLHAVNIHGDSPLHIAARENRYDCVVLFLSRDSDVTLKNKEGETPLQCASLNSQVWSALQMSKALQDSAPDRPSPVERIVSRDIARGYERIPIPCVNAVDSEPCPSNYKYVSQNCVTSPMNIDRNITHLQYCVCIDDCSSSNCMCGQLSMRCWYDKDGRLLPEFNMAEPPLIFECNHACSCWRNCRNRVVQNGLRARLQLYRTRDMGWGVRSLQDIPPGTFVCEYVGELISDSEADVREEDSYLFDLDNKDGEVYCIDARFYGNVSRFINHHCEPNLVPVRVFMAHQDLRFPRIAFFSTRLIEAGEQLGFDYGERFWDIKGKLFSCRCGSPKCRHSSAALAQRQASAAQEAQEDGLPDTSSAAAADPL

B1: LANCL2 (protein, UniProt Q9NS86 2-450, looked up)
LanC-like protein 2: GETMSKRLKLHLGGEAEMEERAFVNPFPDYEAAAGALLASGAAEETGCVRPPATTDEPGLPFHQDGKIIHNFIRRIQTKIKDLLQQMEEGLKTADPHDCSAYTGWTGIALLYLQLYRVTCDQTYLLRSLDYVKRTLRNLNGRRVTFLCGDAGPLAVGAVIYHKLRSDCESQECVTKLLQLQRSVVCQESDLPDELLYGRAGYLYALLYLNTEIGPGTVCESAIKEVVNAIIESGKTLSREERKTERCPLLYQWHRKQYVGAAHGMAGIYYMLMQPAAKVDQETLTEMVKPSIDYVRHKKFRSGNYPSSLSNETDRLVHWCHGAPGVIHMLMQAYKVFKEEKYLKEAMECSDVIWQRGLLRKGYGICHGTAGNGYSFLSLYRLTQDKKYLYRACKFAEWCLDYGAHGCRIPDRPYSLFEGMAGAIHFLSDVLGPETSRFPAFELDSSKRD
B2: ORC5 (protein, UniProt O43913 1-435, looked up)
Origin recognition complex …: MPHLENVVLCRESQVSILQSLFGERHHFSFPSIFIYGHTASGKTYVTQTLLKTLELPHVFVNCVECFTLRLLLEQILNKLNHLSSSEDGCSTEITCETFNDFVRLFKQVTTAENLKDQTVYIVLDKAEYLRDMEANLLPGFLRLQELADRNVTVLFLSEIVWEKFRPNTGCFEPFVLYFPDYSIGNLQKILSHDHPPEYSADFYAAYINILLGVFYTVCRDLKELRHLAVLNFPKYCEPVVKGEASERDTRKLWRNIEPHLKKAMQTVYLREISSSQWEKLQKDDTDPGQLKGLSAHTHVELPYYSKFILIAAYLASYNPARTDKRFFLKHHGKIKKTNFLKKHEKTSNHLLGPKPFPLDRLLAILYSIVDSRVAPTANIFSQITSLVTLQLLTLVGHDDQLDGPKYKCTVSLDFIRAIARTVNFDIIKYLYDFL
B3: SERBP1 (protein, UniProt Q8NC51 2-408, looked up)
SERPINE1 mRNA-binding protein …: PGHLQEGFGCVVTNRFDQLFDDESDPFEVLKAAENKKKEAGGGGVGGPGAKSAAQAAAQTNSNAAGKQLRKESQKDRKNPLPPSVGVVDKKEETQPPVALKKEGIRRVGRRPDQQLQGEGKIIDRRPERRPPRERRFEKPLEEKGEGGEFSVDRPIIDRPIRGRGGLGRGRGGRGRGMGRGDGFDSRGKREFDRHSGSDRSSFSHYSGLKHEDKRGGSGSHNWGTVKDELTESPKYIQKQISYNYSDLDQSNVTEETPEGEEHHPVADTENKENEVEEVKEEGPKEMTLDEWKAIQNKDRAKVEFNIRKPNEGADGQWKKGFVLHKSKSEEAHAEDSVMDHHFRKPANDITSQLEINFGDLGRPGRGGRGGRGGRGRGGRPNRGSRTDKSSASAPDVDDPEAFPALA
B4: EEF1B2 (protein, UniProt P24534 2-225, looked up)
Elongation factor 1-beta: GFGDLKSPAGLQVLNDYLADKSYIEGYVPSQADVAVFEAVSSPPPADLCHALRWYNHIKSYEKEKASLPGVKKALGKYGPADVEDTTGSGATDSKDDDDIDLFGSDDEEESEEAKRLREERLAQYESKKAKKPALVAKSSILLDVKPWDDETDMAKLEECVRSIQADGLVWGSSKLVPVGYGIKKLQIQCVVEDDKVGTDMLEEQITAFEDYVQSMDVAAFNKI
B5: DUSP3 (protein, UniProt P51452 1-185, looked up)
Dual specificity protein …: MSGSFELSVQDLNDLLSDGSGCYSLPSQPCNEVTPRIYVGNASVAQDIPKLQKLGITHVLNAAEGRSFMHVNTNANFYKDSGITYLGIKANDTQEFNLSAYFERAADFIDQALAQKNGRVLVHCREGYSRSPTLVIAYLMMRQKMDVKSALSIVRQNREIGPNDGFLAQLCQLNDRLAKEGKLKP

Experiments:
3×MBT domain of L3MBTL1 = assay: Triple SILAC pull-down, 3xMBT/3xMBTD355N ratio (cytoplasmic, nuclear and chromatin fractions of 293T cells); assay type: binding, human; settings: SILAC ratio 3xMBT vs 3xMBTD355N pull-down, 293T cells, all values in log base 2; for 3xMBT/D355N UNC Heavy: experiment with UNC0638 in heavy SILAC media; for 3xMBT/D355N UNC Light: experiment with UNC0638 in light SILAC media;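 on all read-outs here: proteins quantified with MaxQuant, requiring at least two unique peptides and quantification in both label directions, normalized to the mean of proteins from a digested loading control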
G9a and GLP = biological target: T1, G9a and GLP; assay: Triple SILAC pull-down after UNC0638 treatment of 293T cells, DMSO/UNC0638 ratio of protein captured by 3×MBT; assay type: cell-based; design: cells were treated for 24 hours with UNC0638 at 2.5 μM or DMSO vehicle control; endogenous in cells; host or cells: HEK 293T; settings: all values in log base 2; for Relative to UNC0638 UNC Heavy / Relative to UNC0638 UNC Light: SILAC ratio DMSO relative to UNC0638, pull-down with 3xMBT; for Relative to UNC0638 UNC Heavy: UNC0638 in heavy SILAC media; for Relative to UNC0638 UNC Light: UNC0638 in light SILAC media; for Relative to UNC0638 Average: average of UNC Light and UNC Heavy experiments;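 on all read-outs here: mass spectrometry (Q-Exactive) SILAC quantitation, DMSO/UNC0638 ratio computed after subtracting 3×MBTD355N mutant pull-down background, only proteins with at least twofold 3×MBT over mutant signal considered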

Molecule | 3xMBT/D355N UNC Heavy (3×MBT domain of L3MBTL1) | 3xMBT/D355N UNC Light (3×MBT domain of L3MBTL1) | Relative to UNC0638 UNC Heavy (G9a and GLP) | Relative to UNC0638 UNC Light (G9a and GLP) | Relative to UNC0638 Average (G9a and GLP)
B1 | 1.44 log base 2 | 1.81 log base 2 | −0.05 log base 2 | −0.26 log base 2 | −0.16 log base 2
B2 | 1.97 log base 2 | 2.52 log base 2 | −2.12 log base 2 | 0.06 log base 2 | −1.03 log base 2
B3 | −0.66 log base 2 | −0.06 log base 2 | −0.45 log base 2 | – | −0.45 log base 2
B4 | −0.81 log base 2 | −0.32 log base 2 | 0.01 log base 2 | −0.64 log base 2 | −0.31 log base 2
B5 | 1.97 log base 2 | 1.19 log base 2 | 0.47 log base 2 | −1.35 log base 2 | −0.44 log base 2
